# Measurements reported in article PMC10607609, “The Functionality of IbpA from Acholeplasma laidlawii Is Governed by Dynamic Rearrangement of Its Globular–Fibrillar Quaternary Structure” (International Journal of Molecular Sciences, 2023).
# B1: full-length AlIbpA_(His6), small heat shock protein IbpA from Acholeplasma laidlawii (natural protein, UniProt A9NFB2 1-137, looked up)
# chain: MLSLLNKNRSFFDDFFEDFNVLNPVTTSNLMRTDIKETQNGYSLSVELPGFKKEDVKVSLEDGYLTIEAHTSKNSETKDQATKYIRKERYEGTMKRSYYVGNLHLDEINGTFENGMLHIELPKETKKEPEKRYLELK
# modifications: biotin (EZ-Link NHS-PEG4-biotin) where it was the protein immobilised on the streptavidin biosensor
# notes: Forms globular and fibrillar oligomers; also called HSP20; sHSP; source: E. coli BL21 (DE3), purified (Ni-NTA agarose)
# B2: AlIbpAΔN12_(His6), AlIbpA lacking 12 N-terminal amino acid residues (domain or fragment, Acholeplasma laidlawii, UniProt A9NFB2 13-137, looked up)
# chain: DDFFEDFNVLNPVTTSNLMRTDIKETQNGYSLSVELPGFKKEDVKVSLEDGYLTIEAHTSKNSETKDQATKYIRKERYEGTMKRSYYVGNLHLDEINGTFENGMLHIELPKETKKEPEKRYLELK
# notes: The limit 13 is worked out from 'removal of 12 N-terminal amino acid residuals'; Forms mostly fibrils; also called AlIbpA∆N12_(His6); AlIbpAN12_(His6); source: E. coli BL21 (DE3), purified (Ni-NTA agarose)
# Tests used:
# [1] = target: full-length AlIbpA_(His6), small heat shock protein IbpA from Acholeplasma laidlawii (Acholeplasma laidlawii) (UniProt A9NFB2); experiment: BLI; BLItz; biotinylated AlIbpA_(His6) loaded on a streptavidin biosensor (2.0 nm); analyte 10 µM in PBS pH 7.4; 300 s association, 300 s dissociation; BSA control subtracted
# [2] = target: AlDnaKST, recombinant C-terminally StrepII-tagged DnaK (HSP70) from Acholeplasma laidlawii (Acholeplasma laidlawii) (UniProt A9NFN8); experiment: BLI; BLItz; biotinylated AlDnaKST or AlClpBST loaded on a streptavidin biosensor (2.0 nm); analyte in PBS pH 7.4; 300 s association, 300 s dissociation; BSA control subtracted
# [3] = target: AlClpBST, recombinant C-terminally StrepII-tagged ClpB (HSP100) from Acholeplasma laidlawii (Acholeplasma laidlawii); experiment: as above
# [4] = target: T1, AlDnaKST, recombinant C-terminally StrepII-tagged DnaK (HSP70) from Acholeplasma laidlawii (Acholeplasma laidlawii, UniProt A9NFN8 1-610, biotin (EZ-Link NHS-PEG4-biotin) where it was the protein immobilised on the streptavidin biosensor); experiment: BLI; BLItz; biotinylated AlIbpA_(His6) loaded on a streptavidin biosensor (2.0 nm); analyte 10 µM in PBS pH 7.4; 300 s association, 300 s dissociation; BSA control subtracted; settings: both partners purified
# T1 construct: DnaK (HSP70) of Acholeplasma laidlawii, from a synthetic gene dnaK cloned in pET-28a(+); Plasmid pET-28a-AlDnaKST; source: E. coli BL21 (DE3), purified (Strep-tactin agarose); not shown: StrepII, C-terminal, kept
# [5] = target: T1, AlDnaKST, recombinant C-terminally …; experiment: BLI; BLItz; biotinylated AlDnaKST or AlClpBST loaded on a streptavidin biosensor (2.0 nm); analyte in PBS pH 7.4; 300 s association, 300 s dissociation; BSA control subtracted; settings: both partners purified
molecule,measurement,setting,value
"AlClpBST, recombinant C-terminally StrepII-tagged ClpB (HSP100) from Acholeplasma laidlawii (natural protein)",Kd,[1],1200 nM
same,Kd,[2],20300 nM
"AlIbpA∆N12_(His6)–insulin complex, chemically cross-linked with glutaraldehyde (from UniProt A9NFB2 13-137)",fold increase in KD against AlIbpA∆N12 (His6) alone,[2],2 fold
human insulin (ligand),Kd,[1],100 nM
B1,Kd,[3],200 nM
same,Kd,[4],3100 nM
same,Kd,[5],100 nM
B2,fold decrease of binding affinity against full-length AlIbpA_(His6),[5],15 fold
